# According to PMC3763546, “Structural insight into negative DNA supercoiling by DNA gyrase, a bacterial type 2A DNA topoisomerase” (Nucleic Acids Research, 2013):
# B1: Thermus thermophilus GyrB-GyrA fusion protein (GyrBA-fus) (enzyme)
# chain: MSYDASAIRVLKGLEGVRHRPAMYIGGTGVEGYHHLFKEILDNAVDEALAGYATEILVRLNEDGSLTVEDNGRGIPVDLMPEEGKPAVEVIYTTLHSGGKFEQGAYKVSGGLHGVGASVVNALSEWTVVEVFREGKHHRIAFSRGEVTEPLRVVGEAPRGKTGTRVTFKPDPEIFGNLRFDPSKIRARLREVAYLVAGLKLVFQDRQHGKEEVFLDKGGVASFAKALAEGEDLLYEKPFLIRGTHGEVEVEVGFLHTQGYNAEILTYANMIPTRDGGTHLTAFKSAYSRALNQYAKKAGLNKEKGPQPTGDDLLEGLYAVVSVKLPNPQFEGQTKGKLLNPEAGTAVGQVVYERLLEILEENPRIAKAVYEKALRAAQAREAARKARELVRRQNPLESDELPGKLADCQTENPEEAELFIVEGDSAGGSAKQGRDRRFQAILPLRGKILNVEKAGLSKALKNAEVRAMVSAIGVGIGGDGEAHFDLEGLRYHKIIIMTDADVDGSHIRTLLLTFFYRYMRPLIERGHVYIAQPPLYRLQVGKKVEYLYSDEELQARLKELEGKHYEVQRFKGLGEMNPEQLWETTMNPEKRVLKRVELQDALEASELFEKLMGQEVAPRREFIEEHARYAELDIGDLMAQVLPVEITEELKQSFINYAMSVIVDRALPDVRDGLKPVQRRILFGAYQEGVLPGRKHVKSAKIVGEVMGKYHPHGDAAIYDALVRMAQPWNLRYPLIDGQGNFGSIDGDPPAAQRYTEARLSPIGAEMLLDIDKDTVDFRPNYDGSLKEPEVLPAAIPNLLVNGASGIAVGMATSLPPHNLSEVVDALVAMIENPAITLEEVMRHLPGPDFPTGGKLSKKGIKEAYATGRGSLKVRAKVRVEEKGQRPVLVVTEIPYQVNKASLIAQIAALVKAKKIEDIVGLRDESDRQGLRIAIELKRGANPQVVLNQLYKHTALQTSFTVNLLAIVDGEPKVLSLLDLMRHYLDHRKEVVRRRSLFELRKAEERAHVLEGLLIALDHIDEVIALIRGSEDAPKARIALMERFGLSEAQAQAILDMRLQRLVALEREKLLEEYRGLMEEIARLKAILEDEARLLAEVKADLLRVKEKYGDARRTLITEFEETFNPEDLIEDEPMVITLTAQGFLKRLPLESYRAQGRGGKGLLAGRTKEEDEATHVFVADAHDDLLLFTNRGRVYRLKVYELPEMGRQARGVHVKSLLPLAEDEEVAALLSVRGLDQEGYLVFATERGLVKRTALKEYQNLGQAGLIAIRLQEGDRLVGVALSDPEDEAILATQEGQAIRFPLEEVRATGRDTQGVIGVRFKKPEDRVVSLVVVKPGEMVDLLSVSTRGYGKRTPLSEYPLQGRGGMGVITYAVSTKVGRLAALLKVRGGEDLLVLSRRGLAIRTPVAEIRQYSRATAGVRVMNLPEDDEVASAFVVEEEK
# notes: DNA gyrase subunit B (GyrB), Thermus thermophilus, amplified from genomic DNA; three-amino acid G-D-L linker between the C-terminus of GyrB and the N-terminus of GyrA; DNA gyrase subunit A (GyrA), Thermus thermophilus, amplified from genomic DNA; The His10 tag stands upstream of a PreScission protease (P3C) site; Details of cloning and purification are in the Supplementary Methods; A dimer of the …
# Target: the molecule itself
# Test: native MS; native ESI-MS (time-of-flight), 200 mM ammonium acetate pH 7.5, sample at 8 uM; without and with ADPNP, without and with the 155 bp DNA
protein,measurement,value
B1,stoichiometry N,2
